Data: the supplement of paper PMC10567573

B1: PLAGL1 (parent)
chain: LELGSTEVLLDHLKAHAEEKPPSG

Variants of: B1
Assay: protein stability index of a GFP-peptide fusion (GPS, HEK-293T) (PSI 1-6); higher = more stable
Conditions: c terminus: a fixed tail appended
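Also: lentivirally expressed fusions sorted by FACS into six bins by GFP to DsRed ratio, PSI derived from sequencing read proportions per bin multiplied by bin number.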

Variant | protein stability index
LELGSTEVLLDHSKAHAEEKPPSG | 5.6
LELGSTEVLLDHAKAHAEEKPPSG | 5.38
LELGSTEVLLDHPKAHAEEKPPSG | 5.35
LELGSTEVLLDHTKAHAEEKPPSG | 5.46
LELGSTEVLLDHHKAHAEEKPPSG | 5.61
LELGSTEVLLDHLKAEAEEKPPSG | 4.6
LELGSTEVLLDHLKAIAEEKPPSG | 3.93
LELGSTEVLLDHLKAPAEEKPPSG | 5.07
LELGSTEVLLDHLKATAEEKPPSG | 4.29
LELGSTEVLLDHLKAYAEEKPPSG | 3.33
LELGSTEVLLDHLKADAEEKPPSG | 4.25
LELGSTEVLLDHLKACAEEKPPSG | 4.2
LELGSTEVLLDHLKARAEEKPPSG | 4.28
LELGSTEVLLDHLKAVAEEKPPSG | 4.05
LELGSTEVLLDHLKANAEEKPPSG | 5.11
LELGSTEVLLDHLKALAEEKPPSG | 4.08
LELGSTEVLLDHLKAAAEEKPPSG | 4.24
LELGSTEVLLDHLKAKAEEKPPSG | 5.08
LELGSTEVLLDHLKAQAEEKPPSG | 4.53
LELGSTEVLLDHLKAMAEEKPPSG | 3.29
LELGSTEVLLDHLKAGAEEKPPSG | 3.88
LELGSTEVLLDHLKAWAEEKPPSG | 3.02
LELGSTEVLLDHLKAFAEEKPPSG | 3.42
LELGSTEVLLDHLKASAEEKPPSG | 4.58

Variant | protein stability index
LELGSTEVLLDHLKAHAAEKPPSG | 3.45
LELGSTEVLLDHLKAHAGEKPPSG | 2.66
LELGSTEVLLDHLKAHACEKPPSG | 3.39
LELGSTEVLLDHLKAHAHEKPPSG | 3.27
LELGSTEVLLDHLKAHAYEKPPSG | 3.25
LELGSTEVLLDHLKAHADEKPPSG | 4.55
LELGSTEVLLDHLKAHAWEKPPSG | 2.07
LELGSTEVLLDHLKAHAMEKPPSG | 2.61
LELGSTEVLLDHLKAHAFEKPPSG | 2.08
LELGSTEVLLDHLKAHANEKPPSG | 3.53
LELGSTEVLLDHLKAHALEKPPSG | 2.76
LELGSTEVLLDHLKAHAREKPPSG | 2.15
LELGSTEVLLDHLKAHAPEKPPSG | 3.28
LELGSTEVLLDHLKAHAQEKPPSG | 3.94
LELGSTEVLLDHLKAHAKEKPPSG | 2.7
LELGSTEVLLDHLKAHATEKPPSG | 3.59
LELGSTEVLLDHLKAHAVEKPPSG | 2.71
LELGSTEVLLDHLKAHAIEKPPSG | 2.62
LELGSTEVLLDHLKAHASEKPPSG | 3.87
LELGSTEVLLRHLKAHAEEKPPSG | 3.46
LELGSTEVLLKHLKAHAEEKPPSG | 3.65
LELGSTEVLLSHLKAHAEEKPPSG | 3.54
LELGSTEVLLWHLKAHAEEKPPSG | 3.03
LELGSTEVLLMHLKAHAEEKPPSG | 2.2

Variant | protein stability index
LELGSTEVLLFHLKAHAEEKPPSG | 1.77
LELGSTEVLLLHLKAHAEEKPPSG | 1.79
LELGSTEVLLEHLKAHAEEKPPSG | 3.56
LELGSTEVLLYHLKAHAEEKPPSG | 2.7
LELGSTEVLLQHLKAHAEEKPPSG | 2.17
LELGSTEVLLHHLKAHAEEKPPSG | 3.79
LELGSTEVLLTHLKAHAEEKPPSG | 3.07
LELGSTEVLLAHLKAHAEEKPPSG | 4
LELGSTEVLLCHLKAHAEEKPPSG | 2.36
LELGSTEVLLPHLKAHAEEKPPSG | 5.43
LELGSTEVLLGHLKAHAEEKPPSG | 3.56
LELGSTEVLLVHLKAHAEEKPPSG | 1.86
LELGSTEVLLIHLKAHAEEKPPSG | 1.25
LELGSTEVLLNHLKAHAEEKPPSG | 4.29
LELGSTEVLLDHLKAHAEPKPPSG | 4.28
LELGSTEVLLDHLKAHAEMKPPSG | 3.41
LELGSTEVLLDHLKAHAEQKPPSG | 3.89
LELGSTEVLLDHLKAHAEVKPPSG | 3.27
LELGSTEVLLDHLKAHAEYKPPSG | 3.32
LELGSTEVLLDHLKAHAELKPPSG | 2.64
LELGSTEVLLDHLKAHAEAKPPSG | 3.73
LELGSTEVLLDHLKAHAERKPPSG | 3.58
LELGSTEVLLDHLKAHAEHKPPSG | 3.61
LELGSTEVLLDHLKAHAEDKPPSG | 4.48

Variant | protein stability index
LELGSTEVLLDHLKAHAESKPPSG | 3.65
LELGSTEVLLDHLKAHAECKPPSG | 3.12
LELGSTEVLLDHLKAHAENKPPSG | 4.03
LELGSTEVLLDHLKAHAETKPPSG | 3.55
LELGSTEVLLDHLKAHAEIKPPSG | 3.14
LELGSTEVLLDHLKAHAEGKPPSG | 2.45
LELGSTEVLLDHLKAHAEKKPPSG | 3.55
LELGSTEVLLDHLKAHAEFKPPSG | 2.33
LELGSTEVLLDHLKAHAEWKPPSG | 3.23
LELGSTEVLLDHLKAHAEEHPPSG | 3.59
LELGSTEVLLDHLKAHAEEMPPSG | 4.01
LELGSTEVLLDHLKAHAEEAPPSG | 4.56
LELGSTEVLLDHLKAHAEEPPPSG | 4.88
LELGSTEVLLDHLKAHAEEGPPSG | 4.22
LELGSTEVLLDHLKAHAEEEPPSG | 5.18
LELGSTEVLLDHLKAHAEECPPSG | 4
LELGSTEVLLDHLKAHAEEIPPSG | 3.71
LELGSTEVLLDHLKAHAEEDPPSG | 4.64
LELGSTEVLLDHLKAHAEENPPSG | 4.58
LELGSTEVLLDHLKAHAEEQPPSG | 3.56
LELGSTEVLLDHLKAHAEELPPSG | 3.9
LELGSTEVLLDHLKAHAEEFPPSG | 2.9
